Here are results for one substance from article PMC3552960.

The target of assay [1] is CCR5 Thr^2.56(82)Lys mutant receptor (human) (UniProt P51681).
In assay [2] the target is CCR5 Thr^2.56(82)Lys/Arg^6.32(225)Gln double-mutant receptor (human) (UniProt P51681).
The target in assay [3] is CCR5 Thr^2.56(82)Pro mutant receptor (human) (UniProt P51681).
For assay [4], the target named is CCR5 Thr^2.56(82)Pro/Arg^6.32(225)Gln double-mutant receptor (human) (UniProt P51681).
Assay [5] has as its target wild type human CCR5 chemokine receptor (human) (UniProt P51681).

As to “HIV-1C Du151 gp150 envelope glycoprotein (Env), carboxy-terminally truncated (natural protein)”, the Env-directed cell fusion (luciferase) on HOS-CD4-Luc cells; maximum fusion came to 4.6 % wild type in assay [1], 16.8 % wild type in assay [2], 135 % wild type in assay [3] and 135 % wild type in assay [4]. The Env-directed cell fusion (luciferase) on HOS-CD4-Luc cells; maximum fusion efficiency (fusion coefficient) (fusion coefficient) was determined as 0.84 in assay [1], 1.9 in assay [2], 16.5 in assay [3] and 18.8 in assay [4]. This substance returned an Env-directed cell fusion (luciferase) on HOS-CD4-Luc cells; maximum fusion efficiency (fusion coefficient: luciferase activity divided by mean fluorescence) (fusion coefficient) in assay [5] of 11.8.
